{"source": "paper PMC6638984", "about": "“Increased association between Epstein-Barr virus EBNA2 from type 2 strains and the transcriptional repressor BS69 restricts EBNA2 activity” (PLoS Pathogens, 2019)", "binders": {"B1": {"name": "BS69 coiled-coil MYND domain (BS69_(CC-MYND), amino acids 480-602) (domain or fragment, human, UniProt Q15326 480-602, looked up)", "chain": "DRMKSDHKRETERVVREALEKLRSEMEEEKRQAVNKAVANMQGEMDRKCKQVKEKCKEEFVEEIKKLATQHKQLISQTKKKQWCYNCEEEAMYHCCWNTSYCSIKCQQEHWHAEHKRTCRRKR", "notes": "BS69 (ZMYND11), human, amino acids 480-602 comprising the coiled-coil and MYND domains, amplified from pCI-BS69 (full length, isoform 1, 602 amino acids); Dimer by SEC-MALS; Expressed from pET49b+ as a GST-6xHis fusion; the tag was cleaved with 3C protease; also called BS69 CC-MYND domain; ZMYND11; source: E. coli Rosetta 2 (DE3) pLysS, purified (cobalt resin, 3C protease cleavage, GSTrap, …)"}}, "key": {"[1]": {"target": "B1", "assay": "ITC; 1 mM EBNA2 peptide titrated into 0.1 mM BS69_(CC-MYND) in the cell, 25°C, 20 mM Tris-HCl, 100 mM NaCl, 1 mM TCEP, pH 7.5; one-site model with n fixed to 1", "conditions": "both partners purified"}, "[2]": {"target": "B1", "assay": "ITC; EBNA2 polypeptide titrated into 0.1 mM BS69_(CC-MYND) in the cell, 19 x 2.0 μl injections, 25°C, 20 mM Tris-HCl, 100 mM NaCl, 1 mM TCEP, pH 7.5; one-site (one event) model; n calculated for monomeric proteins", "conditions": "both partners purified"}, "[3]": {"target": "T1, BS69 coiled-coil MYND domain (BS69_(CC-MYND), amino acids 480-602) (human, UniProt Q15326-1 480-602)", "T1 construct": "cloned into pET49b+; also called ZMYND11 CC-MYND; source: E. coli Rosetta 2 (DE3) pLysS, purified (HisPur cobalt resin, 3C protease cleavage, Superdex 75); not shown: GST, N-terminal, cleaved; His6, N-terminal, cleaved", "T1 sequence (looked up)": "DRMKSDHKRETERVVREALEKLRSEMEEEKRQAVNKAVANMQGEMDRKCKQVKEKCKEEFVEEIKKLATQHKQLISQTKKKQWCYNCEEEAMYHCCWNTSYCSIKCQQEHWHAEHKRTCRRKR", "assay": "ITC; EBNA2 polypeptide (0.3 or 0.6 mM) titrated into 0.1 mM BS69_(CC-MYND) in the cell, 19 x 2.0 µl injections, 25°C, 20 mM Tris-HCl, 100 mM NaCl, 1 mM TCEP, pH 7.5; one-site (one event) model; n on monomer concentrations; mean of 3 experiments", "conditions": "both partners purified"}, "[4]": {"target": "B1", "assay": "ITC; EBNA2 polypeptide (0.3 mM) titrated into 0.1 mM BS69_(CC-MYND) in the cell, 29 x 1.3 μl injections, 25°C, 20 mM Tris-HCl, 100 mM NaCl, 1 mM TCEP, pH 7.5; two-site (two event) model", "conditions": "both partners purified"}, "[5]": {"target": "the molecule itself", "assay": "SEC-MALS; individual polypeptides, 5 mg/ml, Shodex KW403-4F column, 25°C, 20 mM Tris-HCl, 100 mM NaCl, 1 mM TCEP, pH 7.5"}}, "data": [{"binder": "YPPTLEPAELD (EBNA2 of type 2 Epstein-Barr virus (AG876), residues 412-422, holding motif 3 (PTLEP 414-418); source: synthetic peptide (Peptide Synthetics))", "note": "[type 2 EBNA2 motif 3 peptide (T2 EBNA2_(412-422))]", "values": [{"measurement": "Kd", "setting": "[1]", "result": 219000, "unit": "nM"}]}, {"binder": "type 2 EBNA2 polypeptide T2 EBNA2_(348-412) (domain or fragment, also called type 2 EBNA2_(348-412); source: E. coli Rosetta 2 (DE3) pLysS, purified (cobalt resin, 3C protease cleavage, Superdex 75); not shown: His6, N-terminal, cleaved) SMPQLSPVVSLHQGQGPENSPTPGPSTAGPVCRVTPSATPDISPIHEPESSDSEEPPFLFPSDWY", "values": [{"measurement": "Kd", "setting": "[2]", "result": 1210, "unit": "nM"}, {"measurement": "dH", "setting": "[2]", "result": -22.5, "unit": "kcal/mol"}, {"measurement": "stoichiometry N", "setting": "[2]", "result": 0.33}]}, {"binder": "EAPILFPDDWY", "note": "[type 1 EBNA2 motif 2 peptide (435-445)]", "values": [{"measurement": "Kd", "setting": "[1]", "result": 47700, "unit": "nM"}]}, {"binder": "EPPFLFPSDWY (source: synthetic peptide (Peptide Synthetics))", "note": "[type 2 EBNA2 motif 2 peptide (402-412)]", "values": [{"measurement": "Kd", "setting": "[1]", "result": 176000, "unit": "nM"}]}, {"binder": "type 2 EBNA2 polypeptide T2 EBNA2_(348-422) (domain or fragment, EBNA2 of type 2 Epstein-Barr virus (AG876), amino acids 348-422 (motifs 1, 2 and 3), in pET47b+; also called T2 E2_(348-422); source: E. coli Rosetta 2 (DE3) pLysS, purified (HisPur cobalt resin, 3C protease cleavage, Superdex 75); not shown: His6, N-terminal, cleaved) SMPQLSPVVSLHQGQGPENSPTPGPSTAGPVCRVTPSATPDISPIHEPESSDSEEPPFLFPSDWYPPTLEPAELD", "values": [{"measurement": "Kd", "setting": "[3]", "result": 1010, "unit": "nM"}]}, {"binder": "type 2 EBNA2 polypeptide T2 EBNA2_(348-422) (domain or fragment, Monomer alone by SEC-MALS; also called T2 E2_(348-422); type 2 EBNA2_(348-422); source: E. coli Rosetta 2 (DE3) pLysS, purified (cobalt resin, 3C protease cleavage, Superdex 75); not shown: His6, N-terminal, cleaved) SMPQLSPVVSLHQGQGPENSPTPGPSTAGPVCRVTPSATPDISPIHEPESSDSEEPPFLFPSDWYPPTLEPAELD", "values": [{"measurement": "dH", "setting": "[2]", "result": -53.2, "unit": "kcal/mol"}, {"measurement": "stoichiometry N", "setting": "[2]", "result": 0.15}, {"measurement": "dH of the second binding event", "setting": "[4]", "result": -1.59, "unit": "kcal/mol"}]}, {"binder": "T2 EBNA2_(348-422) motif 3 mt (PTLEP to ATAEA) (domain or fragment, EBNA2 of type 2 Epstein-Barr virus (AG876), amino acids 348-422, motif 3 PTLEP_(414-418) mutated to ATAEA; also called T2 EBNA2348-422 m3 mt; source: E. coli Rosetta 2 (DE3) pLysS, purified (HisPur cobalt resin, 3C protease cleavage, Superdex 75); not shown: His6, N-terminal, cleaved) SMPQLSPVVSLHQGQGPENSPTPGPSTAGPVCRVTPSATPDISPIHEPESSDSEEPPFLFPSDWYPATAEAAELD", "values": [{"measurement": "Kd", "setting": "[3]", "result": 590, "unit": "nM"}, {"measurement": "stoichiometry N", "setting": "[3]", "result": 0.31}]}, {"binder": "T2 EBNA2_(348-422) SD mutant (S409D) (domain or fragment, EBNA2 of type 2 Epstein-Barr virus (AG876), residues 348-422, serine to aspartate at position 409; text and methods say position 409; source: E. coli Rosetta 2 (DE3) pLysS, purified (cobalt resin, 3C protease cleavage, Superdex 75); not shown: His6, N-terminal, cleaved) SMPQLSPVVSLHQGQGPENSPTPGPSTAGPVCRVTPSATPDISPIHEPESSDSEEPPFLFPDDWYPPTLEPAELD", "values": [{"measurement": "dH of the second binding event", "setting": "[4]", "result": -7.65, "unit": "kcal/mol"}]}, {"binder": "EBNA2_(348-422) SD + m3 mt (domain or fragment, EBNA2 of type 2 Epstein-Barr virus (AG876), residues 348-422, with S409D and motif 3 PTLEP mutated to ATAEA; also called type 2 EBNA2 double mutant (S409D, PTLEP to ATAEA); source: E. coli Rosetta 2 (DE3) pLysS, purified (cobalt resin, 3C protease cleavage, Superdex 75); not shown: His6, N-terminal, cleaved) SMPQLSPVVSLHQGQGPENSPTPGPSTAGPVCRVTPSATPDISPIHEPESSDSEEPPFLFPDDWYPATAEAAELD", "values": [{"measurement": "binding result", "setting": "[4]", "result": "binds"}]}, {"binder": "T2 EBNA2_(348-422) m3 T1 (PTLEP to the type 1 sequence PSIDP) (domain or fragment, source: E. coli Rosetta 2 (DE3) pLysS, purified (HisPur cobalt resin, 3C protease cleavage, Superdex 75); not shown: His6, N-terminal, cleaved) SMPQLSPVVSLHQGQGPENSPTPGPSTAGPVCRVTPSATPDISPIHEPESSDSEEPPFLFPSDWYPPSIDPAELD", "values": [{"measurement": "Kd", "setting": "[3]", "result": 1900, "unit": "nM"}, {"measurement": "stoichiometry N", "setting": "[3]", "result": 0.25}]}, {"binder": "T2 EBNA2_(348-422) motif 3 mt (PTLEP to ATAEA) (domain or fragment, EBNA2 of type 2 Epstein-Barr virus (AG876), residues 348-422, with motif 3 mutated from PTLEP to ATAEA; also called T2 E2 m3 mt; source: E. coli Rosetta 2 (DE3) pLysS, purified (cobalt resin, 3C protease cleavage, Superdex 75); not shown: His6, N-terminal, cleaved) SMPQLSPVVSLHQGQGPENSPTPGPSTAGPVCRVTPSATPDISPIHEPESSDSEEPPFLFPSDWYPATAEAAELD", "values": [{"measurement": "dH", "setting": "[2]", "result": -25.7, "unit": "kcal/mol"}, {"measurement": "stoichiometry N", "setting": "[2]", "result": 0.3}]}, {"binder": "EBNA2_(348-422) SD + m3 T1 (domain or fragment, EBNA2 of type 2 Epstein-Barr virus (AG876), residues 348-422, with S409D and motif 3 PTLEP replaced by PSIDP; also called T2 EBNA2_(348-422) SD + m3 T1; type 2 EBNA2 double mutant (S409D, PTLEP to PSIDP); source: E. coli Rosetta 2 (DE3) pLysS, purified (cobalt resin, 3C protease cleavage, Superdex 75); not shown: His6, N-terminal, cleaved) SMPQLSPVVSLHQGQGPENSPTPGPSTAGPVCRVTPSATPDISPIHEPESSDSEEPPFLFPDDWYPPSIDPAELD", "values": [{"measurement": "binding result", "setting": "[4]", "result": "binds"}]}, {"binder": "B1", "values": [{"measurement": "stoichiometry N", "setting": "[5]", "result": 2}]}]}
